Numbering of substitutions follows the chain as printed.
B1: 370_E04 (antibody, V domains shown)
VH: EVQLLESGGGLVQPGGSLRLSCAASGFTFSSYSMNWVRQAPGKGLEWVANINYNGGYKGYADSVKGRFTISRDNSKNTLYLQMNSLRAEDTAVYYCARGATWHDTHLDYWGQGTLVTVSS
VL: DIQMTQSPSSLSASVGDRVTITCRASQSILTYLNWYQQKPGKAPKLLIYAVTSLHSGVPSRFSGSGSGTDFTLTISSLQPEDFATYYCQQSYETPLTFGGGTKVEIK
B2: 371_H11 (antibody, V domains shown)
VH: B1 VH with A49S, N50G
VL: B1 VL with V51T, L54R, T94S
B3: 374_A05 (antibody, V domains shown)
VH: B1 VH with S31D, S33G
VL: B1 VL with L30V, T31R, L47V, V51A, H55A, T94L
B4: 371_C06 (antibody, V domains shown)
VH: B1 VH with A49S, N50S, K58T, G59S
VL: B1 VL with L30S, T31S, L54R, H55A, E93D, T94L
B5: 371_G01 (antibody, V domains shown)
VH: B1 VH with S31D, A49S, K58T, G59S
VL: B1 VL with V51A, H55A, E93D, T94L
B6: 365_C11 (antibody, V domains shown)
VH: B1 VH with N50G, G59S, G99S, T101N
VL: B1 VL with L30I, L47V, L54R, H55A, E93S, T94L
B7: 374_D04 (antibody, V domains shown)
VH: B1 VH with N50G, K58T, G59S
VL: B1 VL with T31S, L47V, V51A, L54R, E93D
B8: 370_H06 (antibody, V domains shown)
VH: B1 VH with S30D, S31D, K58T
VL: B1 VL with V51A, L54R, H55A
B9: 374_H05 (antibody, V domains shown)
VH: B1 VH with N50G, K58T, G59S
VL: B1 VL with T31S, L33V, L47V, V51A, L54R, H55A, E93D, T94N
B10: 371_B01 (antibody, V domains shown)
VH: B1 VH with S30D, A49S, G55S, K58T
VL: B1 VL with T31S, L33V, V51A, H55A, E93D, T94L
B11: 375_C11 (antibody, V domains shown)
VH: B1 VH with A49S, N50S, K58T, G59S
VL: B1 VL with T31S, L33V, V51A, L54R, E93D
B12: 375_F10 (antibody, V domains shown)
VH: B1 VH with A49S, N50G, K58T
VL: B1 VL with L47V, V51A, L54R, H55A, E93D
B13: 370_F01 (antibody, V domains shown)
VH: B1 VH with S33G, A49S, K58T, G59S
VL: B1 VL with L30V, T31S, V51A, L54R, H55A, E93D, T94S
B14: 370_H04 (antibody, V domains shown)
VH: B1 VH with A49S, K58T
VL: B1 VL with T31S, L33V, V51A, L54R, H55A, E93D, T94L
B15: 365_C12 (antibody, V domains shown)
VH: B1 VH with S33G, N50G, G55S, G59S, G99S, T101N, H106A
VL: B1 VL with L30V, T31S, L33V, L47V, H55A, E93D
B16: 376_A02 (antibody, V domains shown)
VH: B1 VH with N50G, G59S
VL: B1 VL with T31S, V51A, L54R, H55A, E93D, T94L
B17: 370_F12 (antibody, V domains shown)
VH: B1 VH with S31D, K58T
VL: B1 VL with T31S, V51A, T52S, H55Q, E93D, T94S
B18: 375_A03 (antibody, V domains shown)
VH: B1 VH with S30D, N50G, K58T, G59S
VL: B1 VL with V51A, L54R, E93D, T94N
B19: 375_B03 (antibody, V domains shown)
VH: B1 VH with N50G, K58T, G59S
VL: B1 VL with V51A, L54R, H55A, E93D, T94S
B20: 371_F09 (antibody, V domains shown)
VH: B1 VH with N50G, K58T, G59S
VL: B1 VL with V51A, L54R, H55A, E93D, T94N
B21: 371_F03 (antibody, V domains shown)
VH: B1 VH with A49S, N50G, K58T, G59S
VL: B1 VL with L30I, V51A, E93D, T94N
B22: 372_H11 (antibody, V domains shown)
VH: B1 VH with S33G, N35H, N50G, K58T, G59S
VL: B1 VL with T31S, L33V, V51A, L54R, H55A, T94N
B23: 365_B07 (antibody, V domains shown)
VH: B1 VH with S33G, N35H, N50S, G55S, K58T, G59S, G99S, T101N, H106A
VL: B1 VL with V51A, L54R, H55A, T94N
B24: 375_H08 (antibody, V domains shown)
VH: B1 VH with A49S, N50G, K58T, G59S
VL: B1 VL with V51A, H55A, E93D, T94S
B25: 372_E08 (antibody, V domains shown)
VH: B1 VH with S31D, A49S, K58T, G59S
VL: B1 VL with L30I, V51A, L54R, H55A, E93N, T94L
B26: 374_G05 (antibody, V domains shown)
VH: B1 VH with A49S, G55S
VL: B1 VL with L30I, T31S, V51A, L54R, H55A, E93D, T94L
B27: 365_C01 (antibody, V domains shown)
VH: B1 VH with S30D, S33G, A49S, N50S, G55S, G59S, G99S, T101N
VL: B1 VL with L30V, T31S, L47V, L54R, H55A, T94S
B28: 365_B11 (antibody, V domains shown)
VH: B1 VH with S33G, N35H, N50G, K58T, G59S, G99S, T101N, H106A
VL: B1 VL with L30I, T31S, L47V, V51T, L54R, E93D, T94S
B29: 374_A04 (antibody, V domains shown)
VH: B1 VH with N50G, K58T, G59S
VL: B1 VL with L47V, V51A, L54R, H55A, E93D
B30: 371_E08 (antibody, V domains shown)
VH: B1 VH with A49S, G55S, G59S
VL: B1 VL with L30V, T31S, L33V, L47V, V51A, L54R, E93D, T94L
B31: 373_B09 (antibody, V domains shown)
VH: B1 VH with S30D, A49S, N50G, G59S
VL: B1 VL with T31S, L47V, V51A, H55A
B32: 365_A12 (antibody, V domains shown)
VH: B1 VH with S33G, N35H, N50G, K58T, G59S, R98K, G99S, T101N
VL: B1 VL with L33V, V51A, L54R, T94N
B33: 365_A03 (antibody, V domains shown)
VH: B1 VH with N50G, G55S, G99S, T101N, H106A
VL: B1 VL with T31S, L47V, L54R, H55A, E93D, T94S
B34: 376_A07 (antibody, V domains shown)
VH: B1 VH with A49S, N50G, G59S
VL: B1 VL with V51A, L54R, H55A, E93D, T94S
B35: 365_B06 (antibody, V domains shown)
VH: B1 VH with S30D, S33G, N35H, A49S, G59S, G99S, T101N, H106A
VL: B1 VL with L33V, V51T, H55A, E93D, T94L
B36: 365_A11 (antibody, V domains shown)
VH: EVQLLESGGGLVQPGGSLRLSCAASGFTFDDYGMNWVRQAPGKGLEWVSGINYNSGYTSYADSVKGRFTISRDNSKNTLYLQMNSLRAEDTAVYYCARSANWHDTALDYWGQGTLVTVSS
VL: B1 VL with T31S, L47V, V51A, H55A, T94S
B37: 371_E09 (antibody, V domains shown)
VH: B36 VH with D30S, G33S, S99G, N101T, A106H
VL: B1 VL with V51A, L54R, H55A, E93N, T94S
B38: 372_B09 (antibody, V domains shown)
VH: B1 VH with A49S, N50S, G55S, K58T, G59S
VL: B1 VL with V51A, L54R, H55A
B39: 371_C07 (antibody, V domains shown)
VH: B1 VH with S30D, S33G, A49S, K58T, H106A
VL: B1 VL with T31S, V51A, H55A, E93D
B40: 370_E05 (antibody, V domains shown)
VH: B1 VH with S33G, A49S
VL: B1 VL with L30S, L47V, L54R, H55A, E93N, T94S
B41: 374_D09 (antibody, V domains shown)
VH: B1 VH with S30D, S33G
VL: B1 VL with L30I, T31S, L33V, V51A, H55A, E93D
B42: 373_D06 (antibody, V domains shown)
VH: B1 VH with N50G, K58T, G59S
VL: B1 VL with L30V, V51A, L54R, H55A, E93D
B43: 365_B01 (antibody, V domains shown)
VH: B36 VH with D31S, N35H, S49A, G50S
VL: B1 VL with L30S, T31S, L33V, L47V, V51A, L54R, H55A, T94S
B44: 365_C10 (antibody, V domains shown)
VH: B36 VH with D30S, D31S, N35H, S49A, G50S, S55G
VL: B1 VL with T31S, L33V, V51A, H55A, T94S
B45: 373_F07 (antibody, V domains shown)
VH: B1 VH with A49S, N50G, G55S, G59S
VL: B1 VL with T31S, V51A, H55A
B46: 370_F02 (antibody, V domains shown)
VH: B1 VH with S30D, S33G, K58T
VL: B1 VL with T31S, L54R, E93D, T94S
B47: 371_E12 (antibody, V domains shown)
VH: B1 VH with S30D, A49S, N50G, G55S, G59S
VL: B1 VL with T31S, V51A, H55A, E93D
B48: 370_G08 (antibody, V domains shown)
VH: B1 VH with S31D, N50G, K58T
VL: B1 VL with L47V, V51A, L54R, H55A, T94S

These binders were tested against Human Fc (human) (assay: ELISA; negative control).

optical density [OD] | Binder
0.292 | B1
0.363 | B2
0.159 | B3
0.308 | B4
0.375 | B5
0.296 | B6
0.179 | B7
0.358 | B8
0.257 | B9
0.464 | B10
0.199 | B11
0.21 | B12
0.407 | B13
0.596 | B14
0.332 | B15
0.22 | B16
0.457 | B17
0.203 | B18
0.209 | B19
0.602 | B20
0.252 | B21
0.392 | B22
0.269 | B23
0.204 | B24

optical density [OD] | Binder
0.369 | B25
0.158 | B26
0.376 | B27
0.305 | B28
0.275 | B29
0.251 | B30
0.172 | B31
0.422 | B32
0.342 | B33
0.221 | B34
0.281 | B35
0.299 | B36
0.306 | B37
0.308 | B38
0.287 | B39
0.427 | B40
0.171 | B41
0.192 | B42
0.445 | B43
0.397 | B44
0.172 | B45
0.376 | B46
0.398 | B47
0.364 | B48
